From US20260132197A1 come the findings set out here.

In assay [1] the target is human CD47 on cells (SHP-77 tumor cells, human red blood cells, CCRF-CEM cells, human CD47 CHO-K1 stable cell line) (human) (UniProt Q08722). In words: cell-based or functional assay.
Assay [2] deals with cynomolgus CD47 on CHO-K1 stable cell line (cynomolgus). As to the kind of experiment: flow cytometry on cynomolgus CD47 CHO-K1 cells; plateau not reached, not accurate.
The target in assay [3] is human CD47 on cells (SHP-77 tumor cells, human red blood cells, CCRF-CEM cells, human CD47 CHO-K1 stable cell line) (human) (UniProt Q08722). As to the kind of experiment: flow cytometry on SHP-77 cells.
Assay [4] has the same target. As to the kind of experiment: flow cytometry on human RBCs.
The target is the same in assay [5]. In words: flow cytometry on human CD47 CHO-K1 cells; plateau not reached, not accurate.

As for TTI-622 fusion protein (Fc fusion), the CCRF-CEM phagocytosis EC50 in assay [1] is 0.4 nM. The substance further yielded a CCRF-CEM phagocytosis, Phagocytosis (%) in assay [1] of 36.6%. For the same substance, the EC50 in assay [2] came out at 9.3 nM; in assay [3], 4.9 nM; in assay [4], 9.7 nM; in assay [5] it was 10.4 nM. In addition, the Fitted maximal MFI in assay [3] amounted to 10500 MFI; in assay [4], 644 MFI.
